Consider 19 molecules from US20160053025A1 (SAMSUNG ELECTRONICS, published 2016).

Positions count from the first letter of the chain named.

Assay [1] addresses T1, recombinant hAng-2 (C-His, R&D Systems) (human, UniProt O15123 19-496).
T1 construct: Bought protein; also called human Ang-2 protein; C-terminal histidine-tagged human Ang2 (R&D Systems); not shown: C-terminal His tag
T1 sequence: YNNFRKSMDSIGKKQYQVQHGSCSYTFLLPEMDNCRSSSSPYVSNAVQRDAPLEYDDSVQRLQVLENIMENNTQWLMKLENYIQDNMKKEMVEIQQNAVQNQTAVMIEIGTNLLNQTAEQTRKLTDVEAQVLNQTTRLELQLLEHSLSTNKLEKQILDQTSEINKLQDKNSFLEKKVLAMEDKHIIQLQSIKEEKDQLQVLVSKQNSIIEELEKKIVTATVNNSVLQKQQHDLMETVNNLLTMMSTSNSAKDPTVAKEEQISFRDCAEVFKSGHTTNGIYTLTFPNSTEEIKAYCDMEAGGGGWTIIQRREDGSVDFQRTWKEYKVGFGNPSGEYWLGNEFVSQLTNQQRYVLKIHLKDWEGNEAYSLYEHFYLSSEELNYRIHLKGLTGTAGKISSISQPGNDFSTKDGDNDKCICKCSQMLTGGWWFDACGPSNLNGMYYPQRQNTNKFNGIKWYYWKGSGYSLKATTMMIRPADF
The assay can be described thus: SPR, BIAcore T100; hAng2 (C-His) captured by anti-His antibody on CM5, antibody as analyte. The procedure: The binding affinity (KD values) of the antibodies to human Ang2 protein was measured by an SPR method using a BIAcore T100 (GE Healthcare). 25 μg/ml anti-His antibody was immobilized on a CM5 sensor chip (GE healthcare) using a pH 5.0 acetate solution and an amine coupling kit (GE Healthcare). 6 μg/ml of a recombinant hAng2 (C-His, R&D Systems) protein was flowed onto the chip to be captured at 100 to 200 RU levels.

In assay [2] the target is T2, FLAG-tagged hAng-2 (human, UniProt O15123 19-496, limits assumed).
T2 construct: not shown: FLAG tag
T2 sequence: T1 sequence
Nature of the assay: Ang2-Tie2 competition ELISA: plate coated with hTie2-Fc, 400 ng/ml FLAG-tagged hAng-2 with antibody at varied concentration, detection with anti-FLAG-HRP; blocked ligand/receptor: hTie2-Fc. On the procedure:
More specifically, MaxiSorp™ flat-bottom plate (Nunc) of 96-well was coated with hTie2-Fc (R&D Systems) which is a protein bound with 4 μg/ml of Fc of human IgG1. After that, the plate was washed five times with 0.05% (v/v) Tween-20-containing PBS (phosphate buffer saline) and then blocked with 1% (v/v) BSA (bovine serum albumin; Sigma)-containing PBS at a room temperature for 2 hour.
For Ang2:Tie2 competition ELISA, each anti-Ang2 antibody obtained in Example 2 was placed at various concentrations of 400 nM-0.001 nM into each well coated with the hTie-2/Fc fusion protein along with 1% (v/v) BSA and 400 ng/ml of a FLAG-tagged hAng-2 and then, the plate was allowed to react at a room temperature for 2 hours and washed five times with PBST. After that, an anti-FLAG antibody (Sigma) conjugated with HRP diluted in 1% (v/v) BSA-containing PBS at a ratio of 1:5,000 (v/v) was added in an amount of 100 μl to each well to react at a room temperature for 1 hour and then, the plate was washed five times with PBST. Lastly, 100 μl of TMB substrate (Cell Signaling) was added to each well of the plate to induce color development for 3 min. and then, the reaction was ceased by the addition of 100 μl of Stop solution (Cell Signaling) and OD450 values were measured on a plate reader (Molecular Devices). […]

B1: h10D6-OPTI-1 (antibody, human IgG1, V domains shown)
VH: QVQLQESGPGLVKPSETLSLTCAVSGYSITSDYAWNWIRQPPGKGLEWMGKISYSGKTDYNPSLKSRSTISRDTSKNQFSLKLSSVTAADTAVYYCARGNFEGAMDYWGQGTLVTVSS
VL: DIQMTQSPSSLSASVGDRVTITCKASQSVSNDVAWYQQKPGKAPKLLIYYASNRYPGVPSRFSGSGSGTDFTLTISSLQPEDFATYYCQQDYSSPWTFGQGTKLEIK
As a reminder, the Kd is the constant that tells how readily two partners part at equilibrium. What is called koff is the rate constant with which the complex falls apart. In general, kon refers to a measure of how fast the partners come together. For B1, in assay [1], the Kd was found to be 0.68 nM, the koff is 0.000321 s⁻¹ and the kon came to 474000 M⁻¹ s⁻¹.

B2: h10D6-OPTI-3 (antibody, human IgG1, V domains shown)
VH: EVQLVESGGGLVQPGGSLRLSCAASGYSITSDYAWNWVRQAPGKGLEWMGKISYSGKTDYNPSLKSRSTISRDTSKNTFYLQMNSLRAEDTAVYYCARGNFEGAMDYWGQGTLVTVSS
VL: B1 VL
For the molecule B2, in assay [1], the Kd was 0.49 nM, the koff is 0.000307 s⁻¹ and the kon is 624000 M⁻¹ s⁻¹.

B3: h10D6-OPTI-70 (antibody, human IgG1, V domains shown)
VH: B2 VH
VL: B1 VL with N53I, R54P
B3: in assay [1], the Kd was 0.437 nM, the koff was determined as 0.000116 s⁻¹ and the kon worked out at 265000 M⁻¹ s⁻¹.

B4: h10D6-OPTI-65 (antibody, human IgG1, V domains shown)
VH: B1 VH
VL: B1 VL with N53I, R54P
In the case of B4, the koff in assay [1] was 2.25e-05 s⁻¹.

B5: h10D6-OPTI-17 (antibody, human IgG1, V domains shown)
VH: B2 VH with S53N, S55A, K57N
VL: B1 VL with A34H
In the case of B5, in assay [1], the Kd stood at 0.76 nM, the koff came out at 0.00035 s⁻¹ and the kon came out at 460000 M⁻¹ s⁻¹.

B6: h10D6-OPTI-42 (antibody, human IgG1, V domains shown)
VH: B1 VH with M49I, K51Y, S53N, K57N, S68V, R72V
VL: B1 VL with A34H, Q90H, W96F
B6: in assay [1], the Kd was found to be 0.85 nM, the koff was 0.000286 s⁻¹ and the kon came to 336000 M⁻¹ s⁻¹.

B7: 10D6-HU5 (antibody, V domains shown)
VH: B1 VH with M49I, K51Y, S53N, K57N, S68V, R72V
VL: B1 VL
notes: Humanized antibody; also called humanized antibody 10D6-HU5
Consider B7, for which, in assay [1], the Kd was 64 nM, the koff came out at 0.00312 s⁻¹ and the kon was 48600 M⁻¹ s⁻¹.

B8: h10D6-OPTI-68 (antibody, human IgG1, V domains shown)
VH: B2 VH
VL: B1 VL with S28F, N31T, A34H
As for B8, in assay [1], the Kd is 0.317 nM, the koff is 0.00017 s⁻¹ and the kon was 536000 M⁻¹ s⁻¹.

B9: 10D6-HU2 (antibody, V domains shown)
VH: B1 VH with K51Y, S53N, K57N
VL: B1 VL
notes: Humanized antibody; also called humanized antibody 10D6-HU2
Consider B9, for which, in assay [1], the Kd amounted to 47 nM, the koff worked out at 0.00346 s⁻¹ and the kon is 73000 M⁻¹ s⁻¹.

B10: 10D6-HU3 (antibody, V domains shown)
VH: B2 VH with K51Y, S53N, K57N
VL: B1 VL
notes: Humanized antibody; also called humanized antibody 10D6-HU3
Turning to B10, in assay [1], the Kd was found to be 43 nM, the koff came out at 0.00194 s⁻¹ and the kon came out at 45000 M⁻¹ s⁻¹.

B11: h10D6-OPTI-67 (antibody, human IgG1, V domains shown)
VH: B1 VH
VL: B1 VL with A34H, N53I, R54P
In the case of B11, in assay [1], the Kd was determined as 0.000129 nM, the koff amounted to 2.68e-07 s⁻¹ and the kon stood at 2.08e+06 M⁻¹ s⁻¹.

B12: h10D6-OPTI-2 (antibody, human IgG1, V domains shown)
VH: B1 VH with S53N, S55A, K57N
VL: B1 VL
B12: in assay [1], the dissociation constant Kd came out at 0.34 nM, the koff is 0.000149 s⁻¹ and the kon was determined as 424000 M⁻¹ s⁻¹.

B13: h10D6-OPTI-55 (antibody, human IgG1, V domains shown)
VH: B1 VH with S53N, S55A, K57N
VL: B1 VL with A34H
For B13, in assay [1], the Kd was determined as 0.14 nM, the off-rate constant (koff) came to 8.49e-05 s⁻¹ and the kon was 621000 M⁻¹ s⁻¹.

B14: h10D6-OPTI-16 (antibody, human IgG1, V domains shown)
VH: B2 VH
VL: B1 VL with A34H
Regarding B14, in assay [1], the Kd is 0.92 nM, the koff was 0.000443 s⁻¹ and the kon was determined as 479000 M⁻¹ s⁻¹.

B15: h10D6-OPTI-63 (antibody, human IgG1, V domains shown)
VH: B1 VH
VL: B1 VL with S28F, N31T, A34H
Consider B15, for which, in assay [1], the Kd came to 0.0277 nM, the koff is 7.42e-05 s⁻¹ and the kon was 2.68e+06 M⁻¹ s⁻¹.

B16: h10D6-OPTI-4 (antibody, human IgG1, V domains shown)
VH: B2 VH with S53N, S55A, K57N
VL: B1 VL
Consider B16, for which, in assay [1], the Kd is 0.33 nM, the koff was 0.000246 s⁻¹ and the kon worked out at 736000 M⁻¹ s⁻¹.

B17: 10D6-HU1 (antibody, V domains shown)
VH: B1 VH with T30S, M49I, K51Y, S53N, K57N, S68V, R72V
VL: B1 VL
notes: Humanized antibody; also called humanized antibody 10D6-HU1
Take B17: in assay [1], the Kd was found to be 84 nM, the koff was determined as 0.0026 s⁻¹ and the kon came to 30800 M⁻¹ s⁻¹.

B18: h10D6-OPTI-43 (antibody, human IgG1, V domains shown)
VH: B1 VH
VL: B1 VL with A34H
Regarding B18, in assay [1], the Kd is 0.38 nM, the koff is 0.000576 s⁻¹ and the kon was 1.53e+06 M⁻¹ s⁻¹.

B19: 4H10 (antibody, V domains shown)
VH: EVQLLESGGGLVQPGGSLRLSCAASGFTFSSYDMSWVRQAPGKGLEWVSLISPDSSSIYYADSVKGRFTISRDNSKNTLYLQMNSLRAEDTAVYYCAKDLISFWRGGFDYWGQGTLVTVSS
VL: QSVLTQPPSASGTPGQRVTISCSGSSSNIGSNYVNWYQQLPGTAPKLLIYADSNRPSGVPDRFSGSKSGTSASLAISGLRSEDEADYYCGSWDYSLSGYVFGGGTKLTVLG
notes: also called anti-Ang2 antibody 4H10
For the molecule B19, in assay [2], the “IC50 (read off the curve)” value was approximately 0.2 nM.
